Assay results: patent US20230079955A1 (POSEIDA THERAPEUTICS, published 2023)

B1: "L2H2" CAR (humanized MUC1-C scFv chimeric antigen receptor) (other)
chain: EILLTQSPDFQSVTPKEKVTFTCRASQSIGTSIHWYQQKPNQSPKLLIKYASESISGVPSRFSGSGSGTDFTLTINSVESEDIADYYCQQSNNWPLTFGQGTKLEIKGGGGSGGGGSGGGGSQVQLVQSGAEVKKPGSSVKISCKTSGYAFSNFWMNWVRQAPGQGLEWIGQIYPGDGDTNYNGKFKGRVTLTADKSTSTAYMELSSLRSEATAVYFCARSYYRSAWFAYWGQGTLVTVSSTTTPAPRPPTPAPTIASQPLSLRPEACRPAAGGAVHTRGLDFACDIYIWAPLAGTCGVLLLSLVITLYCKRGRKKLLYIFKQPFMRPVQTTQEEDGCSCRFPEEEEGGCELRVKFSRSADAPAYKQGQNQLYNELNLGRREEYDVLDKRRGRDPEMGGKPRRKNPQEGLYNELQKDKMAEAYSEIGMKGERRRGKGHDGLYQGLSTATKDTYDALHMQALPPR
B2: "L3H4" CAR (humanized MUC1-C scFv chimeric antigen receptor) (other)
chain: EILLTQSPDFQSVTPKEKVTFTCRASQSIGTSIHWYQQKPNQSPKLLIKYASESISGVPSRFSGSGSGTDFTLSINSVESEDIADYYCQQSNNWPLTFGQGTKLEIKGGGGSGGGGSGGGGSQVQLVQSGAEVKKPGSSVKISCKTSGYAFSNFWMNWVKQRPGQGLEWIGQIYPGDGDTNYNGKFKGRATLTADKSSSTAYMELSSLRSEATAVYFCARSYYRSAWFAYWGQGTLVTVSSTTTPAPRPPTPAPTIASQPLSLRPEACRPAAGGAVHTRGLDFACDIYIWAPLAGTCGVLLLSLVITLYCKRGRKKLLYIFKQPFMRPVQTTQEEDGCSCRFPEEEEGGCELRVKFSRSADAPAYKQGQNQLYNELNLGRREEYDVLDKRRGRDPEMGGKPRRKNPQEGLYNELQKDKMAEAYSEIGMKGERRRGKGHDGLYQGLSTATKDTYDALHMQALPPR
notes: also called 13H4
B3: "L1H2B" CAR (humanized MUC1-C scFv chimeric antigen receptor) (other)
chain: EILLTQSPDFQSVTPKEKVTFTCRASQSIGTSIHWYQQKPNQSPKLLIKYASESISGVPSRFSGSGSGTDFTLTINSLESEDIATYYCQQSNNWPLTFGQGTKLEIKGGGGSGGGGSGGGGSQVQLVQSGAEVKKPGSSVKISCKTSGYAFSNFWMNWVRQAPGQGLEWIGQIYPGDGDTNYNAKFKGRVTLTADKSTSTAYMELSSLRSEATAVYFCARSYYRSAWFAYWGQGTLVTVSSTTTPAPRPPTPAPTIASQPLSLRPEACRPAAGGAVHTRGLDFACDIYIWAPLAGTCGVLLLSLVITLYCKRGRKKLLYIFKQPFMRPVQTTQEEDGCSCRFPEEEEGGCELRVKFSRSADAPAYKQGQNQLYNELNLGRREEYDVLDKRRGRDPEMGGKPRRKNPQEGLYNELQKDKMAEAYSEIGMKGERRRGKGHDGLYQGLSTATKDTYDALHMQALPPR
B4: "L2H3" CAR (humanized MUC1-C scFv chimeric antigen receptor) (other)
chain: EILLTQSPDFQSVTPKEKVTFTCRASQSIGTSIHWYQQKPNQSPKLLIKYASESISGVPSRFSGSGSGTDFTLTINSVESEDIADYYCQQSNNWPLTFGQGTKLEIKGGGGSGGGGSGGGGSQVQLVQSGAEVKKPGSSVKISCKTSGYAFSNFWMNWVKQRPGQGLEWIGQIYPGDGDTNYNGKFKGRATLTADKSTSTAYMELSSLRSEATAVYFCARSYYRSAWFAYWGQGTLVTVSSTTTPAPRPPTPAPTIASQPLSLRPEACRPAAGGAVHTRGLDFACDIYIWAPLAGTCGVLLLSLVITLYCKRGRKKLLYIFKQPFMRPVQTTQEEDGCSCRFPEEEEGGCELRVKFSRSADAPAYKQGQNQLYNELNLGRREEYDVLDKRRGRDPEMGGKPRRKNPQEGLYNELQKDKMAEAYSEIGMKGERRRGKGHDGLYQGLSTATKDTYDALHMQALPPR
B5: "L3H3" CAR (humanized MUC1-C scFv chimeric antigen receptor) (other)
chain: EILLTQSPDFQSVTPKEKVTFTCRASQSIGTSIHWYQQKPNQSPKLLIKYASESISGVPSRFSGSGSGTDFTLSINSVESEDIADYYCQQSNNWPLTFGQGTKLEIKGGGGSGGGGSGGGGSQVQLVQSGAEVKKPGSSVKISCKTSGYAFSNFWMNWVKQRPGQGLEWIGQIYPGDGDTNYNGKFKGRATLTADKSTSTAYMELSSLRSEATAVYFCARSYYRSAWFAYWGQGTLVTVSSTTTPAPRPPTPAPTIASQPLSLRPEACRPAAGGAVHTRGLDFACDIYIWAPLAGTCGVLLLSLVITLYCKRGRKKLLYIFKQPFMRPVQTTQEEDGCSCRFPEEEEGGCELRVKFSRSADAPAYKQGQNQLYNELNLGRREEYDVLDKRRGRDPEMGGKPRRKNPQEGLYNELQKDKMAEAYSEIGMKGERRRGKGHDGLYQGLSTATKDTYDALHMQALPPR
B6: "L3H2" CAR (humanized MUC1-C scFv chimeric antigen receptor) (other)
chain: EILLTQSPDFQSVTPKEKVTFTCRASQSIGTSIHWYQQKPNQSPKLLIKYASESISGVPSRFSGSGSGTDFTLSINSVESEDIADYYCQQSNNWPLTFGQGTKLEIKGGGGSGGGGSGGGGSQVQLVQSGAEVKKPGSSVKISCKTSGYAFSNFWMNWVRQAPGQGLEWIGQIYPGDGDTNYNGKFKGRVTLTADKSTSTAYMELSSLRSEATAVYFCARSYYRSAWFAYWGQGTLVTVSSTTTPAPRPPTPAPTIASQPLSLRPEACRPAAGGAVHTRGLDFACDIYIWAPLAGTCGVLLLSLVITLYCKRGRKKLLYIFKQPFMRPVQTTQEEDGCSCRFPEEEEGGCELRVKFSRSADAPAYKQGQNQLYNELNLGRREEYDVLDKRRGRDPEMGGKPRRKNPQEGLYNELQKDKMAEAYSEIGMKGERRRGKGHDGLYQGLSTATKDTYDALHMQALPPR
notes: also called 13H2
B7: "L1H3" CAR (humanized MUC1-C scFv chimeric antigen receptor) (other)
chain: EILLTQSPDFQSVTPKEKVTFTCRASQSIGTSIHWYQQKPNQSPKLLIKYASESISGVPSRFSGSGSGTDFTLTINSLESEDIATYYCQQSNNWPLTFGQGTKLEIKGGGGSGGGGSGGGGSQVQLVQSGAEVKKPGSSVKISCKTSGYAFSNFWMNWVKQRPGQGLEWIGQIYPGDGDTNYNGKFKGRATLTADKSTSTAYMELSSLRSEATAVYFCARSYYRSAWFAYWGQGTLVTVSSTTTPAPRPPTPAPTIASQPLSLRPEACRPAAGGAVHTRGLDFACDIYIWAPLAGTCGVLLLSLVITLYCKRGRKKLLYIFKQPFMRPVQTTQEEDGCSCRFPEEEEGGCELRVKFSRSADAPAYKQGQNQLYNELNLGRREEYDVLDKRRGRDPEMGGKPRRKNPQEGLYNELQKDKMAEAYSEIGMKGERRRGKGHDGLYQGLSTATKDTYDALHMQALPPR
B8: "L1H4" CAR (humanized MUC1-C scFv chimeric antigen receptor) (other)
chain: EILLTQSPDFQSVTPKEKVTFTCRASQSIGTSIHWYQQKPNQSPKLLIKYASESISGVPSRFSGSGSGTDFTLTINSLESEDIATYYCQQSNNWPLTFGQGTKLEIKGGGGSGGGGSGGGGSQVQLVQSGAEVKKPGSSVKISCKTSGYAFSNFWMNWVKQRPGQGLEWIGQIYPGDGDTNYNGKFKGRATLTADKSSSTAYMELSSLRSEATAVYFCARSYYRSAWFAYWGQGTLVTVSSTTTPAPRPPTPAPTIASQPLSLRPEACRPAAGGAVHTRGLDFACDIYIWAPLAGTCGVLLLSLVITLYCKRGRKKLLYIFKQPFMRPVQTTQEEDGCSCRFPEEEEGGCELRVKFSRSADAPAYKQGQNQLYNELNLGRREEYDVLDKRRGRDPEMGGKPRRKNPQEGLYNELQKDKMAEAYSEIGMKGERRRGKGHDGLYQGLSTATKDTYDALHMQALPPR
B9: "L2H4" CAR (humanized MUC1-C scFv chimeric antigen receptor) (other)
chain: EILLTQSPDFQSVTPKEKVTFTCRASQSIGTSIHWYQQKPNQSPKLLIKYASESISGVPSRFSGSGSGTDFTLTINSVESEDIADYYCQQSNNWPLTFGQGTKLEIKGGGGSGGGGSGGGGSQVQLVQSGAEVKKPGSSVKISCKTSGYAFSNFWMNWVKQRPGQGLEWIGQIYPGDGDTNYNGKFKGRATLTADKSSSTAYMELSSLRSEATAVYFCARSYYRSAWFAYWGQGTLVTVSSTTTPAPRPPTPAPTIASQPLSLRPEACRPAAGGAVHTRGLDFACDIYIWAPLAGTCGVLLLSLVITLYCKRGRKKLLYIFKQPFMRPVQTTQEEDGCSCRFPEEEEGGCELRVKFSRSADAPAYKQGQNQLYNELNLGRREEYDVLDKRRGRDPEMGGKPRRKNPQEGLYNELQKDKMAEAYSEIGMKGERRRGKGHDGLYQGLSTATKDTYDALHMQALPPR
B10: "L1H2" CAR (humanized MUC1-C scFv chimeric antigen receptor) (other)
chain: EILLTQSPDFQSVTPKEKVTFTCRASQSIGTSIHWYQQKPNQSPKLLIKYASESISGVPSRFSGSGSGTDFTLTINSLESEDIATYYCQQSNNWPLTFGQGTKLEIKGGGGSGGGGSGGGGSQVQLVQSGAEVKKPGSSVKISCKTSGYAFSNFWMNWVRQAPGQGLEWIGQIYPGDGDTNYNGKFKGRVTLTADKSTSTAYMELSSLRSEATAVYFCARSYYRSAWFAYWGQGTLVTVSSTTTPAPRPPTPAPTIASQPLSLRPEACRPAAGGAVHTRGLDFACDIYIWAPLAGTCGVLLLSLVITLYCKRGRKKLLYIFKQPFMRPVQTTQEEDGCSCRFPEEEEGGCELRVKFSRSADAPAYKQGQNQLYNELNLGRREEYDVLDKRRGRDPEMGGKPRRKNPQEGLYNELQKDKMAEAYSEIGMKGERRRGKGHDGLYQGLSTATKDTYDALHMQALPPR

Assays:
[1] = target: MUC1 on MDA-MB-468.lucGFP cells (UniProt P15941 24-1255); assay: cell-based or functional assay
Sequence of MUC1 on MDA-MB-468.lucGFP cells (P15941 24-1255): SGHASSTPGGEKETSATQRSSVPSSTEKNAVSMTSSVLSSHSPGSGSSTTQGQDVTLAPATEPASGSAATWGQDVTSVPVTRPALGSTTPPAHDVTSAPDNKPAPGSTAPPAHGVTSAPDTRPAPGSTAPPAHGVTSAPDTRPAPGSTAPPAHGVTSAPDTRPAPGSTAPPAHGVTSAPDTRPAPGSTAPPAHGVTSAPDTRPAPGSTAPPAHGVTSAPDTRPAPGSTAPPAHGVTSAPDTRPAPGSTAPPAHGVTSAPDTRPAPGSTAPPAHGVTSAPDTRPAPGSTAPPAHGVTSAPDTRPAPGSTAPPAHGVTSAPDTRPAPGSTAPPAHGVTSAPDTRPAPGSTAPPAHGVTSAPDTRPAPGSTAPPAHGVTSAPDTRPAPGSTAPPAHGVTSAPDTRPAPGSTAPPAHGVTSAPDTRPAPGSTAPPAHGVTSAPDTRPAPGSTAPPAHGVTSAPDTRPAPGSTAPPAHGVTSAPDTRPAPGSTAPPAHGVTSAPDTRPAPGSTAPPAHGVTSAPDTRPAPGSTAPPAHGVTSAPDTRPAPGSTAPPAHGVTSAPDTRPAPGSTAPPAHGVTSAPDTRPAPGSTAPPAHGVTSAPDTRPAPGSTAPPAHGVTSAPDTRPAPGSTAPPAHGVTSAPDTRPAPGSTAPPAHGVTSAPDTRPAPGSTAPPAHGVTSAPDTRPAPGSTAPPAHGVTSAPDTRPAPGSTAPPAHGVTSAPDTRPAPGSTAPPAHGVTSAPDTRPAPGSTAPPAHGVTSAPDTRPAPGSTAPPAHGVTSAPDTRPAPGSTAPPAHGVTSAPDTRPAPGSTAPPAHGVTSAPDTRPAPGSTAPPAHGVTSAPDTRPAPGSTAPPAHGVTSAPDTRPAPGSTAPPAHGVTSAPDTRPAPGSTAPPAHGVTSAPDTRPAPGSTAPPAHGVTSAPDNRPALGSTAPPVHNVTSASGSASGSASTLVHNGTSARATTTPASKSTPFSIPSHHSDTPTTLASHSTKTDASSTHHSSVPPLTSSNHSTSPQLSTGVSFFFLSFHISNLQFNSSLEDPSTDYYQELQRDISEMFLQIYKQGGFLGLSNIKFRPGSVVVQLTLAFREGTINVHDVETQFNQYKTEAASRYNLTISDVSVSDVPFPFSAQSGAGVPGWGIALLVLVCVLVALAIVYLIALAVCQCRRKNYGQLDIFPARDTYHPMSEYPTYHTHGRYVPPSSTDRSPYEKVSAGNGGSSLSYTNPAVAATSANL

[2] = target: T1, His-tagged p62/p58 MUC1 protein (UniProt P15941 1036-1155, limits assumed); assay: flow cytometry of CAR-T cells (anti-CD3/CD28 bead re-activated, 48 hours) stained with His-tagged p62/p58 MUC1 protein and anti-His secondary antibody
T1 construct: domain: p62/p58; Soluble staining reagent for the CAR on T cells, detected with an anti-His secondary antibody; not shown: His tag
T1 sequence (looked up): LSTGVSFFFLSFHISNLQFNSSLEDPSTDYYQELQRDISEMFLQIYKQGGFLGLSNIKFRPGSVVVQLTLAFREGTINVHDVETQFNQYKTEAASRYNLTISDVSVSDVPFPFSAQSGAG
From the text: (§1) MUC1-C candidate CARs were subcloned into a tricistronic piggyBac transposon (EF1alpha promoter-iC9 Safety Switch-T2A-MUC1-C CAR-T2A-DHFR selection gene) and CAR-T cells were produced using pan T cells from a normal human blood donor as described herein (FIG. 6). Expression of each candidate CAR on the surface of piggyBac-modified cells was confirmed by FACS staining 19 days post-transposon delivery using an His-tagged p62/p58 MUC1 protein, followed by anti-His secondary antibody (FIG. 6). Specifically, cells were examined by flow cytometry for surface-expression of CAR on either mock transposed (blue) or anti-CD3/CD28 bead re-activated (red) cells (activation for 48 hours) that received transposon encoding CAR and data are shown as overlaid histograms; numbers represent percentage of cells expressing CAR on cell surface. All candidate MUC1-C CARs were expressed and detected on the surface of piggyBac-produced CAR-T cells (FIG. 7).

[3] = target: T1, His-tagged p62/p58 MUC1 protein; assay: flow cytometry of CAR-T cells stained with His-tagged p62/p58 MUC1 protein and anti-His secondary antibody, day 19
From the text: as §1

| Binder | Target cell killing area under the curve (AUC) [1] | MFI (activated cells) [2] | MFI (non-activated cells) [3] |
| --- | --- | --- | --- |
| B1 | 482 | 3830 MFI | 717 MFI |
| B2 | 501 | 1960 MFI | 695 MFI |
| B3 | 528 | 2990 MFI | 714 MFI |
| B4 | 542 | 2880 MFI | 770 MFI |
| B5 | 518 | 2580 MFI | 696 MFI |
| B6 | 503 | 3620 MFI | 726 MFI |
| B7 | 490 | 3320 MFI | 743 MFI |
| B8 | 498 | 2510 MFI | 737 MFI |
| B9 | 518 | 3020 MFI | 729 MFI |
| B10 | 466 | 3030 MFI | 720 MFI |
